Measured values from the DeepSol protein solubility set.

Test: soluble on expression in E. coli; label from the status in PepcDB or PDB records

Row | Sequence | soluble on expression in E. coli
1 | MNNKKPVCAEGMVKMEKKSLLILGTASHVGKSSVVTAICRILSRSYRVAPFKAQNMSLNSWITKDGKEIGIAQAIQAKAAGTEPTADMNPVLLKPKGDCVSQVVLLGEPYADKSAGQYYDSIEEMHAVLKGALERLWKEHDIIVMEGAGGAAEINLYERDIVNVGTARLTKAPIILVGDIERGGVFASLYGTIALLPEDVRKNVKGFIINKFRGDIEILRPGLKQLEDKTGIPVLGVLPHFKLRIPSEDSVSLGDKEDSKAEKEIEVAVIRLPRISNFTDFEPLEGLVKVRYVDINEELGNPDAIMIPGTKNTVNDLLDLRASGMDKKIQAFKGKVPIFGICGGYQMLGRTIFDSGVENGVEAEFEGLGLLDIGTRFGEYKKRTVQVTKKVNGYGPILRPIDGEEIKGYEIHMGVTDSNRTVFGDDGAIDEDGFVIGTYLHGLFDNRNIRNALVRYLYEKKGLEYEPDEAISENDAYEELANVVEQNIDMEKLFEIAGV | not soluble
2 | MGSDKIHHHHHHMDKEEQYLLFALSTPMEVLYIGNEPSHTSPAMYTGIPAVDLSDSWGIDNREDLIQTIYRMTDDGHAADLAPFYIRWFTLSPRQWREFTAQFGEQGQIYARFVAETALCCGRGGIKAWDYVRMGFLCRMGVLNQWLTEEESLWLQSRIYARAYYFYDGWTQYFAAYSLGRLYWQAKGDTIQAYFAHLKYDASGARMFNELASTTESYYAQLPWRPLNEQPTCPETLKGVSDL | not soluble
3 | HMGCAFLTYCARDSALKAQSALHEQKTLPGMNRPIQVKPADSESRGEDRKLFVGMLGKQQTDEDVRKMFEPFGTIDECTVLRGPDGTSKGCAFVKFQTHAEAQAAINTLHSSRTLPGASSSLVVKFADTEKERGLRRMQQVATQLGMFSPIALQFGAYSAYTQALMQQQAALVAAHSAYLSPMATMAAVQMQHMAAINANGLIATPITPSSGTSTPPAIAATPVSAIPAALGVNGYSPVPTQPTGQPAPDALYPNGVHPYPAQSPAAPVDPLQQAYAGMQHYTAAYPAAYSLVAPAFPQPPALVAQQPPPPPQQQQQQQQQQQQQQQREGPDGCNIFIYHLPQEFTDSEILQMFVPFGHVISAKVFVDRATNQSKCFGFVSFDNPASAQAAIQAMNGFQIGMKRLKVQLKRPKDANRPY | soluble
4 | MAHHHHHHMQRHSSHLLLLLVAVVIPVCSEDKLDFTKLRDPFDMDEINRKLQEKVADDDPVQKAMPDPMDPKFRAPLRCSACGAVIEHAVRLLRPIIERQSERAARSGGVLPADALPKEYEMVDIFENLCGEVGRLYGLEVEKDKKRPTLRFSKSFGVSRLQGAWMPSFLTSTCEGVLDVEGEEKLAAMILGVARSEAEAGRGKVISMNPDQGIVDKVREMVCTKWEESAKGCDAYGVAIDPRETDNDDGAEEAASDL | soluble
5 | MGSDKIHHHHHHMMVNESADQLYSFALLDEDAKREIRRSLLKAVALPGHLIPFASRDLPIARGWGTGGLQITLSIITPDDTLKVIDQGDDESVNAVNLRRLIHRTTGVATTTDTAAASLIQTRHRIPEEPLRADQILVLQVPMADPLRWVEPSLERAITMHGETDYGKMWVYLYESVVRAGDLRIASQYPVIVNHRYMMDTTPIPRWDVPKLHMAETLYLFGAGREKRIYAVPPHTPVEPLQFEDYPFRTEYRPGQRCARCGAENTFLTSHFVADANGGRWEMTCSDVAFCAKRQGEQRDR | not soluble
6 | IDQLNRNQLDLGMCYVDQVNTAYFDVIELDSTKLGVLFDERHFDFAESEVLWESLNNIPLGLLSKGMHYRHSIDLSFVSKGLVPQTVIESNSTFHLIQAVTSGLCCAIMPLNCGLEELNDTLRIIPIEEAAVHAPLGLLKRKQEPFSALTDQCFAEAKNIFNR | not soluble
7 | KTVPSGQAGQGFAEKGPWKKLGLTYTQKTEIQRIHHNTRAEMDKVLTTEQKEQLKAAMQERQTQRSQGEGRGKWKKDIFTSLNLTDAQKSQIQEIRELSRKQMEAVLTPAQRQQLQQMEQNWKSRRQQGNSN | not soluble
8 | MSEWASEDINAPSLLTGNPALQPQTGGILNIPANHQRIFTLFFTCRSQTNGDVVDQYAVEDRQQRLESRLLALKPSAQRNKQMCGECLGGVILTALFDPRSQAM | not soluble
9 | MPLTPLHQVELRLMRTVIAICEAENIDYFLIGGSLLGAIRHHGFIPWDDDIDIGMRRHDYQRFIAVANHHLDPNKFFLQTGASDPDYALSYMKLLDVNTYIEERNNVNNAFKGVFVDIFPFDKIPDDEALRRSQMLHYKLADAAILLKLNYRFVKTPLRNLITKHTPQQLAEVNRYKLEREEYMRLYEQSDSRTYKNLASQYDYEKEIMTYQELTELTTVPFEDIQVKIPSAYDTILTRMYGDYMQLPPADKRVEKHLNKLIIDNHEILLEHHHHHH | not soluble
10 | MGNRLKAARSPYLLAHAEDPVDWYPFGEEAFRKAQAEDKPIFLSVGYASCHWCHVMHRESFQDEEVARLLNAHFVPVKVDREERPDVDAAYMRALVSLTGQGGWPMSLFLTPEGKPFFGGTYFPKEDRMGLPGFKRVLVAVAEAWAGKREAILEEAERLTRALWKSLSPPPGPLPEGAEEEALDHLERAFDPEWGGFLPAPKFPQGPLLLYLLARAWEGEERAARLLRPTLRAMALGGVYDQVGGGFHRYSVDRFWRLPHFEKMLYDNALLARVYLGAYKLFGEDLFLRVARETLDWLLSMQRREGGFHTALDAESEGEEGRYYTWTEAELREALGEDFPLARRYFALGEDLGERSVLTAWGEAEARKALGEGFFAWREGVRAKLQGARRRRMPPALDDKVLADWSALAVRALAEAGRLFGEERYLEAAKRGARFLLAHMYREGLLRHTWRGSLGEEAYLSDQAFAALAFLELYAATGEWPYLDWAQRLAEAGWRLFREGPSLPLPAKEVEEGALPSGESALAEALVRLGAVFGGDYRERAEEVLAEKARWLARYPHALPGALLAKALWERGTELALPLPSPLLEAARGAFLPLTQLVLGPAGALPALEGREAGKAYVCRRGVCLLPVDRWEEVEARVRGDD | soluble
11 | MGSDKIHHHHHHMLDDHTQLEFPASGMTELPLIWQPQVIRCKAAGPGGRPLLVLLDTGTDPSAIDLTLARRLDLRLGDFALGSDATCDTVPFTETVLPWLRLGEVMLRNLYLMAVDLRQMPFPVDLVLGYNVLHRLNLTIDYAGQTVRLCHPDLAPPPPGAEGASVPLRFFEHFPALPAQIIAPSGATHDVILTIDTGSNGALTVSRDLAASLHLDLHTVQAATGHGFAAATPVSRGFTVDLQLGPFRLPAVEVDVPATSHGDLGRQGRANVGNRLLSRFRRLTLDYRREVCILDR | not soluble
12 | MSVCLFLRFCSLRVRCRRLMCRPGEIIHIMWSALAWRWCAVMLTGSQRYAFCNDRFHNRKITRLRNNFMPNILPTDLCANTPTLAIHDNRGFAIRTLAYNRRDHNETIGELISRNRYNASGQLIASRDPRLEVDNFRYQYSLSGVPLRTDSVDSGSTLQLADSAGRTVLTLDAHHTRRWVEYETGEHSLGRPLSYHEQAKGGLKTVTDRFFYATNSEQDKSGNLNGQCVRHYDSAGLQALINQSIIGVPLQQQRRLLTNPKGPVDWFGEKENWGARLSEQPFVSHSTTDALGQLLTQTDAKGHIQRMAYNRAGQLIGSWLTIKNSAEQVILRSLTYSAAGQKLREESGNGVITEYRYEPQTQRLIGIKTTRPAKKDRPTRLQDLRYDYDPVGNILAIHNDAEATRFYRNQKIVPETTYRYDALYQLIEATGREADTNGIQNSQLPALASLNDSNQFVNYTRSYHYDRAGNLLKIQHTGASQYSTHITVSDSSNHGIQQQEGITARDIRSQFDAAGNQQQLQPGQPLRWNSRNQLQQVEPVPRNDGISDSESYLYDGGGSRVVKTSLHKTHNAIQTRSVIYLAGLELRSQYNGNNLTEDFQVITVGAAGRAQVRVLHWERGQPVDIVNDQLRYSFDNHLGSALIELDSDGDIISQEEYYPFGGTAVLASRNTVEAKYKTVRYSGKERDATGLYYYGYRYYQPWLGRWLSADPAGTIDGLNLYRMVRNNPVGLMDGDGLMTDKLLAKHEANFAKKNISSMAELKSEIEKLGLLPADSKQLFLHLNGGESDDEPSGSSGSSGSSEILENTSPHKIKNFHFISEINLATMPRPYYKDFSSTEDMLESAERLKAYGSIDTLLTLDLTSEDIPEFTSILADKGINYIAEKQYEIIDYFSEDELSSENIDRIVNMIKTIQNNNHKVGIHCAAGNGRSGLIATAMIINKKYTQSRINSFEEKNKLKEIIDKNKNEINVDAITYDAMKLVRKTNPFAGERTTDIKAAREYSRYLYSKQNR | not soluble
13 | MNSLSTEQLGIGYGDRVIVEDLNISIPKGKITTLIGPNGCGKSTILKTMSRIMRSHAGAVYLNGKAIHKMSTKDIAKDMAILPQTPEAPSGLTVHELVSYGRFPHQSGFGRLNDEDRRIIKWALEETGMAEYAERPIEALSGGQRQRVWIAMALAQGTELLLLDEPTTYLDLAHQLEILQLLDRLNKEQGRTILMVIHDLNHAARFSHYMIALKKGTVIKEGTALEVMTPDILKQVFQIDAEIVTDPRTNKPVCLTYDLIKNEKELVTV | not soluble
14 | GEKVDFDDIQKKRQNKDLIELQALIDSHFEARRKEEEELVALKERIEKRRAERAE | soluble
15 | MVSYKLTYFNGRGAGEVSRQIFAYAGQQYEDNRVTQEQWPALKETCAAPFGQLPFLEVDGKKLAQSHAIARFLAREFKLNGKTAWEEAQVNSLADQYKDYSSEARPYFYAVMGFGPGDVETLKKDIFLPAFEKFYGFLVNFLKASGSGFLVGDSLTWIDLAIAQHSADLIAKGGDFSKFPELKAHAEKIQAIPQIKKWIETRPVTPF | soluble
16 | MAIKDAIEKIVSYFDADEVTDHEDVAKERPVKVQKTEQTPSQQQRKPERPQETVPPRRQHIKSDVQETQVLRSLSLSRSQVNQGSQQMNTTKTTIAIKYPKKYEDAQEIVELLIENECVLIDFQYMLEAQARRCLDFIDGASKVLTGNLQKVGSSMYLLTPINVVVDIEEIGLSHGNQESTFDFDMKRRLEHHHHHH | not soluble
17 | MLPCLNEEESLPAVLAAIPAGYRALVVDNNSTDDTATVAARHGAQVVVEPRPGYGSAVHAGVLAATTPIVAVIDADGSMDAGDLPKLVAELDKGADLVTGRRRPVAGLHWPWVARVGTVVMSWRLRTRHRLPVHDIAPMRVARREALLDLGVVDRRSGYPLELLVRAAAAGWRVVELDVSYGPRTGGKSKVSGSLRGSIIAILDFWKVISLEHHHHHH | not soluble
18 | MLHLIVLLVALSSAVTAGRPRRALDGLDGSGFGFDKRALNSLDGAGFGFEKRALNSLDGQGFGFEKRALDGLDGAGFGFDKRALNSLDGAGFGFEKRALDGLDGSGFGFDKRALNSLDGAGFGFEKRALNSLDGAGFGFEKRALDGLDGAGFGFDKRALNSLDGAGFGFEKRALDGLDGAGFGFDKRALNSLDGNGFGFDKRTFKHSSNKLRSVFRNLKGFKQH | not soluble
